Results: PMC6937246 (2019)
One block for each binder: values may come before it.

Key:
purified tubulin dimer [1] = test: SPR; VASH1 L226A/C169S
purified tubulin dimer [2] = test: SPR

Kd (purified tubulin dimer [1]): 2100 nM
B1: VASH1-SVBP complex, VASH1 L226A (complex)
chain 1: not shown
chain 2: MDPPARKEKTKVKESVSRVEKAKQKSAQQELKQRQRAEIYALNRVMTELEQQQFDEFCKQMQPPGE

Kd (purified tubulin dimer [2]): 320 nM
B2: VASH1^44–315-SVBP^1–66 heterodimer (complex)
chain 1: not shown
chain 2: B1 chain 2
